The test deals with mouse CCR2 on mouse cells (splenocytes, T cells, plasma cells, macrophages, EG7 lymphoma cells) (mouse) (UniProt P51683). The experiment in a line: cell-based or functional assay.
Chain of UniProt P51683 (P51683 whole entry): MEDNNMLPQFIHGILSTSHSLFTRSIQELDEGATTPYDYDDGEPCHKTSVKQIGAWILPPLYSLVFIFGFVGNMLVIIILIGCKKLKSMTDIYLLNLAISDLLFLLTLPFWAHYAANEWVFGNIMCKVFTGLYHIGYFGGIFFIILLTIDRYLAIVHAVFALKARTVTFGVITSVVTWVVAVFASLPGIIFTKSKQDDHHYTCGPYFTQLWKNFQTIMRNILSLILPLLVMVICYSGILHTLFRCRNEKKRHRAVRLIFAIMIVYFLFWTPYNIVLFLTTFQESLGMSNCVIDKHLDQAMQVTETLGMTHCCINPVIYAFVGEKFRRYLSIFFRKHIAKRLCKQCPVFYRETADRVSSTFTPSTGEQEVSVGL

“recombinant CCL2 (rCCL2, CCL2 1-76) (from UniProt P10148 24-99) (ligand)” showed a CD4 T-cells positive for intracellular IL17 of 19% and a cell death of RA-derived CD4 T-cells, PI/Annexin-V co-staining, 48 h of 15%.

For the origin of these results see patent US20110124552A1.
